{
  "source": "paper PMC6791372",
  "about": "(ACS chemical biology, 2019)",
  "target": "the molecule itself",
  "assay": "crystal structure",
  "data": [
    {"protein": "MetA crystallisation construct (C-terminal residues 297-309 truncated, P257I) (enzyme, E. coli, UniProt P07623 2-296, looked up) PIRVPDELPAVNFLREENVFVMTTSRASGQEIRPLKVLILNLMPKKIETENQFLRLLSNSPLQVDIQLLRIDSRESRNTPAEHLNNFYCNFEDIQDQNFDGLIVTGAPLGLVEFNDVAYWPQIKQVLEWSKDHVTSTLFVCWAVQAALNILYGIPKQTRTEKLSGVYEHHILHPHALLTRGFDDSFLAPHSRYADFPAALIRDYTDLEILAETEEGDAYLFASKDKRIAFVTGHPEYDAQTLAQEFFRDVEAGLDIDVPYNYFPHNDPQNTPRASWRSHGNLLFTNWLNYYVYQI", "values": [
      {"measurement": "binding result", "value": "binds"}
    ]}
  ]
}
